The values that follow are results of earlier work, collected in publication PMC4067574.

One may read the Kd as a measure of binding affinity in units of concentration.

The target of data set [1] is C3b C3b (Homo sapiens) (UniProt P01024).
The target is the same in data set [2]. This is another data set of the same source.

Like-named read-outs stand apart in the source and are kept apart here.

Chain of C3b C3b (Homo sapiens) (P01024 566-670): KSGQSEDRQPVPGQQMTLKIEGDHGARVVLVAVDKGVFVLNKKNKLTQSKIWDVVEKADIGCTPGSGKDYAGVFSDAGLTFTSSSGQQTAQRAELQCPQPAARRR
Chain of complement factor H rFH1-4 N-terminal modules 1-4 (P08603 19-264): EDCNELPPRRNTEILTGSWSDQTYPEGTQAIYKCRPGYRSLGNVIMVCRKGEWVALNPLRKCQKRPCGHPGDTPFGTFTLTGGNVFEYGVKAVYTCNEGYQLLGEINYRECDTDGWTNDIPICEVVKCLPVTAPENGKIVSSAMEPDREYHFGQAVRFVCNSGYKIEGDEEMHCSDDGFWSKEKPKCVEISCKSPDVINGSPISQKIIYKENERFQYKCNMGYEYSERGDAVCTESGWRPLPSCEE
Chain of complement factor H C-terminal fragment C-terminal two modules (P08603 1103-1231): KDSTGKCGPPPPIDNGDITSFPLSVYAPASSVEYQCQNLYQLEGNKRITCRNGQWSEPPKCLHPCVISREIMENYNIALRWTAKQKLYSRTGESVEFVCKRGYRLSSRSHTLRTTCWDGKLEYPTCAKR

As to “complement factor H C-terminal fragment C-terminal two modules (from UniProt P08603)”, the Kd with C3b C3b (Homo sapiens) [1] is 4 µM.
Regarding “complement factor H rFH1-4 N-terminal modules 1-4 (from UniProt P08603)”, in the data set with C3b C3b (Homo sapiens) [2], the Kd is 10 µM.
